In patent US7657380:
Substitutions are numbered along the chain they refer to.

B1: C225 L2/H7 full length antibody (antibody, IgG1, V domains shown)
VH: QVQLQQSGPGLVKPSQTLSLTCTVSGFSLTNYGVHWVRQPPGKGLEWIGVIWSGGNTDYNTSLKSRVTISKDNSKSQVSLKLSSVTAADTAVYYCARALTYYDYEFAYWGQGTLVTVSS
VL: DILLTQSPATLSLSPGERVTLSCRASQSIGTNIHWYQQKPDQSPKLLIKYASESISGIPSRFSGSGSGTDFTLTISSLQPEDFADYYCQQNNNWPTTFGAGTKLEIK
B2: C225 L3/H3 full length antibody (antibody, IgG1, V domains shown)
VH: B1 VH with P40A, I48L, V67L, S79V, K81Q, L82M, S83N, V85L, T86R, A88E
VL: B1 VL with A9S, T10S, L13A, P15V, E17D, L21I, S22T, P80A, F83V, D85V
B3: C225 L4/H3 full length antibody (antibody, IgG1, V domains shown)
VH: B1 VH with P40A, I48L, V67L, S79V, K81Q, L82M, S83N, V85L, T86R, A88E
VL: DILLTQSPAFLSVTPGEKVTITCRASQSIGTNIHWYQQKPDQSPKLLIKYASESISGIPSRFSGSGSGTDFTLTINSLEAEDAATYYCQQNNNWPTTFGAGTKLEIK
B4: C225 L0/H3 full length antibody (antibody, IgG1, V domains shown)
VH: B1 VH with P40A, I48L, V67L, S79V, K81Q, L82M, S83N, V85L, T86R, A88E
VL: not shown
B5: C225 L0/H4 full length antibody (antibody, IgG1, V domains shown)
VH: QVQLQQSGPGLVKPSQTLSLTCTVSGFSLTNYGVHWVRQAPGKGLEWLGVIWSGGNTDYNTSLKSRLTISKDNSKSQVVLTMTNMDPVDTATYYCARALTYYDYEFAYWGQGTLVTVSS
VL: not shown
B6: C225 L0/H5 full length antibody (antibody, IgG1, V domains shown)
VH: QVQLQQSGPGLVKPSQTLSLTCTVSGFSLTNYGVHWVRQAPGKGLEWLGVIWSGGNTDYNTPLTSRLTINKDNSKSQVVLQMNSLRAEDTAVYYCARALTYYDYEFAYWGQGTLVTVSS
VL: not shown
B7: C225 L0/H6 full length antibody (antibody, IgG1, V domains shown)
VH: B6 VH with L48V, P62S, L63V, T64K, S65G, L67F, N70S, V79Y
VL: not shown
B8: C225 L0/H7 full length antibody (antibody, IgG1, V domains shown)
VH: B1 VH
VL: not shown
B9: C225 L0/H8 full length antibody (antibody, IgG1, V domains shown)
VH: QVQLVESGGGLVQPGRSLRLSCAVSGFSLTNYGVHWVRQAPGKGLEWVSVIWSGGNTDYNTSVKGRFTISKDNSKSTVYLQMNSLRAEDTAVYYCARALTYYDYEFAYWGQGTLVTVSS
VL: not shown
B10: C225 L2/H8 full length antibody (antibody, IgG1, V domains shown)
VH: B9 VH
VL: B1 VL
B11: C225 L3/H4 full length antibody (antibody, IgG1, V domains shown)
VH: B5 VH
VL: B1 VL with A9S, T10S, L13A, P15V, E17D, L21I, S22T, P80A, F83V, D85V
B12: C225 L3/H5 full length antibody (antibody, IgG1, V domains shown)
VH: B6 VH
VL: B1 VL with A9S, T10S, L13A, P15V, E17D, L21I, S22T, P80A, F83V, D85V
B13: C225 L3/H6 full length antibody (antibody, IgG1, V domains shown)
VH: B6 VH with L48V, P62S, L63V, T64K, S65G, L67F, N70S, V79Y
VL: B1 VL with A9S, T10S, L13A, P15V, E17D, L21I, S22T, P80A, F83V, D85V
B14: C225 L3/H7 full length antibody (antibody, IgG1, V domains shown)
VH: B1 VH
VL: B1 VL with A9S, T10S, L13A, P15V, E17D, L21I, S22T, P80A, F83V, D85V

Each binder was assayed against EGFR extracellular domain (R&D Systems) (UniProt P00533 25-645, limits assumed) (assay: SPR, full length antibody over EGFR chip).

Binding result, binds:
B1
B2
B3
B4
B5
B6
B7
B8
B9
B10
B11
B12
B13
B14
